Laboratory results reported in article doi:10.1101/2023.06.09.544317 (bioRxiv, 2023).

B1: cysteine tRNA ligase from archaea (Q8U227) (enzyme, P. furiosus, UniProt Q8U227 1-477, looked up)
chain: MLKVYNTLTKQKEEFKPLREGEVKMYVCGPTVYDYPHLGHARTYIAFDVIRRYLEHKGYTVLMVMNFTDIDDKIIKRARETGEDPKELAERFIKIFLEDMEALKVKPADIYPRVTDHIDDIIEFIGKLKEKGYAYEGSDGIYFEVKKFPEYGKLSGVKIEDLQKGARVEPGEGKKNPEDFALWKKAKPGEPKWDSPWGEGRPGWHIECSVMSSKYLGESFDIHGGGNDLIFPHHENEIAQSEACFGHEWVKYWLHTGFVMVKGEKMSKSLGNFVTIRELLKRYEPEVIRFFVLQKHYRSPLEYTEEGLQHAKNNLQRLYNTLENIRVALRNAEISYTWGELEFKTYEIIREGKRKFYEAMDDDFNTAEALKAVFEVANAINKYLTEANKPKESILRKALEFFKIVSEVFGVFEDYFREETKEREESEKLIELLVEVRKQLRKEKRYELADMIREELKKLGIQLEDRGSETTWKRIIT
B2: Q8U0N8, uncharacterized protein of unknown function from Pyrococcus furiosus (natural protein, UniProt Q8U0N8 1-392, looked up)
chain: MSESINNITKPKERRDFVVMAGMRKDGTIDFIKVYALNEKLAIEVLEAFLKENNIHPSDFIVIQRGYEDVKDKKAITTRSEEELSAMLGRLGLRLVSNGVLYTDGIDKLYQITAISRELFESLQKEKREIFEDVQEKITFNFSKVDLPEKYVKKLRLLELMEDTIIFNMAELEIPNLLKAIVEGTVLIPRFLEKEDLIIRIFDEELHEYRGSYFDKVLIKPPIIHWDFYLDSLEDFSFKKVEESIYIAPLFLRATGGFLILTEPPEDLVKTLLKLKKRGEVRTILEGKRITIPINFTLIVDTRHPERYAGLKFPIRINLPPLDDETFLKVLETNLGITPPTEIVRIFPPDYKTFLGVELIKNLFEKLKLTEKGKDEVSLLKEAATIITGGTP

Legend:
[1] = biological target: the molecule itself; experiment: mass photometry
[2] = biological target: the molecule itself; experiment: cryo-EM structure

Protein | stoichiometry N [1] | stoichiometry N [2]
B1 | 2 | 
B2 |  | 6
